According to paper PMC2275666 (The EMBO Journal, 2008):
Where a chain is given by its changes, count along the chain named.

Tests used:
6H–hTFIIEα S365A = target: T1, 6H–hTFIIEα S365A (human, UniProt P29083 1-439, S365A); experiment: pull-down
T1 sequence: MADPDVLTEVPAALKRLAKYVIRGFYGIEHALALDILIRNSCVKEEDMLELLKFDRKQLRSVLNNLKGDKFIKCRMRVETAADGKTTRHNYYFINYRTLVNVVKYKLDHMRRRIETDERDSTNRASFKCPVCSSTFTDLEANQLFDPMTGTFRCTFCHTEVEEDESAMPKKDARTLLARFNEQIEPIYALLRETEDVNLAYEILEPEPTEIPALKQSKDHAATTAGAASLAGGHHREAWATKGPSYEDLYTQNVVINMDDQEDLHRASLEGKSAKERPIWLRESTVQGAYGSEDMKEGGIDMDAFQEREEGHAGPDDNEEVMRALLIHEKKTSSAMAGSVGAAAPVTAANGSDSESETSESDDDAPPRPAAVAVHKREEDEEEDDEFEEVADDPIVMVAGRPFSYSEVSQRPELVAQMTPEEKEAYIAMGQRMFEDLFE

6H–hTFIIEα V390A = target: T2, 6H–hTFIIEα V390A (human, UniProt P29083 1-439, V390A); experiment: pull-down
T2 sequence: T1 sequence with A365S, V390A

B1: GST-tagged hTFIIEβ (natural protein)
chain: MDPSLLRERELFKKRALSTPVVEKRSASSESSSSSSKKKKTKVEHGGSSGSKQNSDHSNGSFNLKALSGSSGYKFGVLAKIVNYMKTRHQRGDTHPLTLDEILDETQHLDIGLKQKQWLMTEALVNNPKIEVIDGKYAFKPKYNVRDKKALLRLLDQHDQRGLGGILLEDIEEALPNSQKAVKALGDQILFVNRPDKKKILFFNDKSCQFSVDEEFQKLWRSVTVDSMDEEKIEEYLKRQGISSMQESGPKKVAPIQRRKKPASQKKRRFKTHNEHLAGVLKDYSDITSSK
binding result (6H–hTFIIEα S365A): binds
binding result (6H–hTFIIEα V390A): binds
